Paper PMC7618045, “Outer membrane utilisomes mediate oligosaccharide uptake in gut Bacteroidetes” (Nature, 2023)

B1: SusC^lev (natural protein, B. thetaiotaomicron, UniProt Q8A6W3 26-1041, looked up)
chain: GQNITVKGNVTSKTDGQPIIGASVVETTATTNGTITDFDGNFTLSVPVNSTLKITYIGYKPVTVKAAAIVNVLLEEDTQMVDEVVVTGYTTQRKADLTGAVSVVKVDEIQKQGENNPVKALQGRVPGMNITADGNPSGSATVRIRGIGTLNNNDPLYIIDGVPTKAGMHELNGNDIESIQVLKDAASASIYGSRAANGVIIITTKQGKKGQIKINFDASVSASMYQSKMNVLNTEQYGRAMWQAYVNDGENPNGNALGYAYNWGYNADGNPVLYGMTLSKYLDSKNTMPVADTDWFDEITRTGVIQQYNLSVSNGSEKGSSFFSLGYYKNLGVIKDTDFDRFSARMNSDYKLIDDILTIGQHFTLNRTSEVQAPGGIIETALDIPSAIPVYASDGSWGGPVGGWPDRRNPRAVLEYNKDNRYTYWRMFGDAYVNLTPFKGFNLRSTFGLDYANKQARYFTYPYQEGTQTNNGKSAVEAKQEHWTKWMWNAIATYQLEVGKHRGDVMIGMELNREDDSHFSGYKEDFSILTPDYMWPDAGSGTAQAYGAGEGYSLVSFFGKMNYSYADRYLLSLTLRRDGSSRFGKNHRYATFPSVSLGWRITQENFMKELTWLDDLKLRASWGQTGNQEISNLARYTIYAPNYGTTDSFGGQSYGTAYDITGSNGGGVLPSGFKRNQIGNDNIKWETTTQTNVGIDFSLFKQSLYGSLEYYYKKATDILTEMAGVGVLGEGGSRWINSGAMKNQGFEFNLGYRNKTAFGLTYDLNGNISTYRNEILELPETVAANGKFGGNGVKSVVGHTYGAQVGYIADGIFKSQDEVDNHATQEGAAVGRIRYRDIDHNGVIDERDQNWIYDPTPSFSYGLNIYLEYKNFDLTMFWQGVQGVDIISDVKKKSDFWSASNVGFLNKGTRLLNAWSPTNPNSDIPALTRSDTNNEQRVSTYFVENGSFLKLRNIQLGYTVPAVISKKMRMDRLRFYCSAQNLLTIKSKNFTGEDPENPNFSYPIPVNITFGLNIGF
notes: SusC^lev, the TonB-dependent outer membrane transporter (SusC) of the levan PUL of B. thetaiotaomicron; Two copies stand in the utilisome (SusC2D2 core); written here without a tag; also called levan SusC; source: endogenous, B. thetaiotaomicron grown on fructose; co-purified from detergent-solubilised membranes (LDAO sample; DDM sample: Ni2+ column, SEC)

Legend:
[1] = target: SusC^dex (B. thetaiotaomicron); experiment: cryo-EM structure; dextran utilisome (Bt3087-Bt3090), 0.05 mg/ml in 10 mM HEPES, 100 mM NaCl, pH 7.5, 0.03% DDM; heptamers, hexamers and pentamers; 3.1 Å consensus; AlphaFold2 models of SusD^dex, GH^dex and SGBP^dex docked into the map
[2] = target: the molecule itself; experiment: cryo-EM structure; apo (substrate-free) levan utilisome, 3 mg/ml in 10 mM HEPES pH 7.5, 100 mM NaCl, 0.03% DDM; ~6 Å classes, 3.5 Å focused C2 refinement without SusD

| Molecule | stoichiometry N [1] | stoichiometry N [2] |
| --- | --- | --- |
| SusC^dex (natural protein) | 2 |  |
| B1 |  | 2 |
